The target in assay [1] is T1, recombinant human IL-23R-Fc chimera (human, UniProt Q5VWK5 24-353).
T1 construct: used at 0.1 µg/ml in the ELISA; not shown: Fc part of the chimera; detected with goat anti-hu-IgG1-HRP a
T1 sequence (looked up): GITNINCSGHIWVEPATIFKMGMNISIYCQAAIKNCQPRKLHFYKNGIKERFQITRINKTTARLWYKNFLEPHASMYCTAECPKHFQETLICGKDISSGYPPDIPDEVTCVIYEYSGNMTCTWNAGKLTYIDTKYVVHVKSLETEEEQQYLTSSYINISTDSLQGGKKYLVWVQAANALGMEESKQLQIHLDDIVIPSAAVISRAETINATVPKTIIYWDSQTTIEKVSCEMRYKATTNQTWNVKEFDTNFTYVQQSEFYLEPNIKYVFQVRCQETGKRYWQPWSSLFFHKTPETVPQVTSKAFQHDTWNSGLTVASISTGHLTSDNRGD
Description: competition ELISA: IL-23R-Fc binding to coated human IL23. The method, then:
Antagonism of compounds for human interleukin-23 receptor antagonists, was determined by an ELISA assay.
A 384-well plate was coated with 50 μl/well of human IL23 at a final concentration of […] and incubated overnight at 4° C. The wells were washed 3 times with 80 μl wash buffer and blocked with 80 μl blocking buffer for 60 minutes at room temperature and washed again. 20 μl of serially diluted test peptides was added to each well and subsequently 20 μl of recombinant human IL-23R-Fc chimera at final concentration of 0.1 μg/ml. The plate was incubated for 60 minutes at room temperature. After the wells were washed, bound IL23R-Fc was detected with goat anti-hu-IgG1-HRP antibody. Signals were visualized with QuantaBlu Fluorogenic Peroxidase Substrate.

Assay [2] deals with T2, IL-23 receptor on the surface of HEK-Blue IL-23 cells (UniProt Q5VWK5 24-629, limits assumed).
T2 sequence (looked up): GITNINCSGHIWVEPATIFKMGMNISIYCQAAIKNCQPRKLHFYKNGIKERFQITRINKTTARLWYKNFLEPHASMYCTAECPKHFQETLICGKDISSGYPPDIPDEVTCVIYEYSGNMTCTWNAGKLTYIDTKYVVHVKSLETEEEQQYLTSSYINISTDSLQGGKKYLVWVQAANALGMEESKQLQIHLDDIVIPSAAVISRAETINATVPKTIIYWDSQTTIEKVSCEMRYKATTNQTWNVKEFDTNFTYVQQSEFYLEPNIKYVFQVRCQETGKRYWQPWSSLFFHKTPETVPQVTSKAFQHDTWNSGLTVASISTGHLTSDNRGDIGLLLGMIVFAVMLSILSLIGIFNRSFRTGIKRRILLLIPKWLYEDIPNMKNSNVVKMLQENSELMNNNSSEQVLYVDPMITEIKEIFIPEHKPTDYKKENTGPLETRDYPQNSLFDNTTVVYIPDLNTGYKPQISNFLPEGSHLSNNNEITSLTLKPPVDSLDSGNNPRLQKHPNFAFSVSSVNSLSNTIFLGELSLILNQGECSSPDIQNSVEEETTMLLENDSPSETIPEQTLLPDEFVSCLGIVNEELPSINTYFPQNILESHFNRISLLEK
Put plainly: cell-based or functional assay.

Starred links: 1 amine or outer side, 2 acyl side, 3 side chain; linkers in the order of their positions; H or OH if unused. Positions of bridges follow the written chain, without caps; N, C: chain ends. Non-standard residues stand in square brackets, D forms with d. No end group written: not given here. Tyr(Me) = COc1ccc(C[C@H](N[*:1])C(=O)[*:2])cc1; 2Nal = N[C@@H](Cc1ccc2ccccc2c1)C(=O)O; Aib = CC(C)(N)C(=O)O

Broadly, the IC50 is the concentration needed to halve the response being measured.

B1: Compound of SEQ ID NO: 7 (peptide)
peptide: K(Ac)CNTWQC[Tyr(Me)][2Nal][Aib]DNN-NH2
modifications: lactam (positions not given here); disulfide 2-7; not fully specified (bridges); printed as K[Ac](§1)-C(@2)-N-T-W-Q-C(@2)-Yme-Nal-Aib-D(§1)-N—N—NH2; also: K1 acetylated, whether acetyl is on alpha-N or epsilon-N (lactam via the other amine) not settled
notes: §1 lactam bridge; @2 disulfide bridge
As for B1, the IC50 in assay [1] amounted to 0.6 nM. Further, the “pSTAT3 (nM)” value in assay [2] amounted to 25 nM.
